In the supplement of paper PMC7125110:
± gives the standard error. This sample holds only a part of the variants without activity.

B1: glmS ribozyme (parent)
chain: AUAAAAGCGCCAGAACUACAGAAAUGUAGUUGACGAGGAGGAGGUUUAUCGAAUUUUCGGCGGAUGCCUCCAAA

Key:
Settings in all cases: with glucosamine-6-phosphate
glucosamine-6-phosphate [1] = variants of: B1; assay: self-cleavage kobs at 160 uM GlcN6P; higher = faster cleavage; RNA array
Summary of the method: (§1)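 Using a hybridised Cy3 probe at 37 °C, barcoded ribozyme variants transcribed in situ by E. coli RNA polymerase on sequenced MiSeq chips were monitored across tiles imaged over ~14 h. The flow contained glucosamine-6-phosphate from 40 μM to 10 mM in HEPES/KCl/Mg(OAc)2 buffer. Signals were normalised to baseline and to non-cleaving reference variants before per-tile medians were fit to one- or two-exponential decays to yield kobs. Weighted Michaelis–Menten fits across concentrations gave kcat and KM.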

glucosamine-6-phosphate [2] = variants of: B1; assay: self-cleavage kobs at 640 uM GlcN6P; higher = faster cleavage; RNA array
Summary of the method: as §1

glucosamine-6-phosphate [3] = variants of: B1; assay: self-cleavage kobs at 2500 uM GlcN6P; higher = faster cleavage; RNA array
Summary of the method: as §1

glucosamine-6-phosphate [4] = variants of: B1; assay: self-cleavage kobs at 10000 uM GlcN6P; higher = faster cleavage; RNA array
Summary of the method: as §1

| Variant | self-cleavage kobs at 160 uM GlcN6P (glucosamine-6-phosphate [1]) [s⁻¹] | self-cleavage kobs at 640 uM GlcN6P (glucosamine-6-phosphate [2]) [s⁻¹] | self-cleavage kobs at 2500 uM GlcN6P (glucosamine-6-phosphate [3]) [s⁻¹] | self-cleavage kobs at 10000 uM GlcN6P (glucosamine-6-phosphate [4]) [s⁻¹] |
| --- | --- | --- | --- | --- |
| AUAAAAGCGCCAGGAUUACAGAAAUGUAGUUGACGAGGAGGAGGUCUAUCGAAUUUUCGGCGGAUGCCUCCAAA | 0.000248 ± 7.7e-05 |  |  |  |
| AUAAAAGCGCCAGGACUACAGAAAUGUAGUUGACGAGGAGGAGGGUUAUCGAUUUUUCGGCGGAUGCCUCCAAA | 0.000618 ± 0.00016 | 0.00262 ± 0.00057 | 0.00337 ± 0.0012 |  |
| AUAAAAGCGCCAGGAUUACAGAAAUGUAGUUGAAGAGGAGAAGGUUUAUCGCAUUUUCGGCGGAUGCCUCCAAA | < 1e-05 |  | < 1e-05 |  |
| AUAAAAGCGCCAGGACUACAGAAAUGUAGUUGACGAGGAGGAGGUUUAUCGAACUUUCGCCGGGUGCCUGCAAA | < 1e-05 | < 1e-05 |  |  |
| AUAAAAGCGCCAGUACUACAGAAAUGUAGUUGAAGAGGAGGAGGUUUAUCGAAUUUUCGAAGGAUGCCUCCAAA | < 1e-05 |  |  | < 1e-05 |
| AUAAAAGCGCCAGUACUACAGAAAUGUAGUUGACGAGGAGGAGGUUUACCGAAUUUGCGGCGGAUGCCUGCAAA | 9.25e-05 ± 2.7e-05 | 6.79e-05 ± 2.7e-05 | 6.68e-05 ± 2.2e-05 |  |
| AUAAAAGCGCCAGUACUACAAAAAUGUAGUUGACGAGGAGGAGGUUUAUCGAAUUGUCGGCGGAUGCCUCCAAA | 0.00134 ± 0.00038 | 0.0043 ± 0.0012 | 0.00645 ± 0.0026 |  |
| AUAAAAGCGCCAGUACUACAGAAAUGUAGUUGACGAGGAGGAGGUUCAACGAAUUUUCGGCGGAUGCCUCCAAA | < 1e-05 |  |  |  |
| AUAAAAGCGCCAGACCUACAGAAAUGUAGUUGACGAGGGGGAGGUUUAUCGAAUUGUCGGGGGAUGCCUCCAAA | < 1e-05 | < 1e-05 | < 1e-05 |  |
| AUAAAAGCGCCAGACCUACAGAAAUGUAGUUGACGAGGUGGCGGUUUAUCGAAUUUUCGGCGGAUGGCUCCAAA | < 1e-05 | < 1e-05 | < 1e-05 |  |
| AUAAAAGCGCCAGGACUACAGAAAUGUAGUUGACGCGGAGGAGCUUUAUCAAAUUUUCGGCAGAUGCCUCCAAA | < 1e-05 |  |  |  |
| AUAAAAGCGCCAGGACUACAGAAAUGUAGUUGACGAGGAGGAGGUUUAUCGAAUUUUCGGGGGAUGCCUCCAAA | < 1e-05 |  |  |  |
| AUAAAAGCGCCAGGACUACAGAAAUGUAGUUGACGCGGAGGAGGUUUAUCGAAUUUUCGGCGGAUGCCUCCAAA | < 1e-05 | < 1e-05 |  |  |
| AUAAAAGCGCCAGUACUACAGAAAUGUAGUUGACGAGGAGGAGGUUUAUUUAAUUUUCGGCGGAUGCCUCCAAA | < 1e-05 | < 1e-05 | < 1e-05 | < 1e-05 |
| AUAAAAGCGCCAGGACUACAGAAAUGUAGUUGGCGAGGAGGAGGUUUAUCGAAUUUUCGUCGGAUGCCUCCAAA | < 1e-05 | < 1e-05 | < 1e-05 |  |
| AUAAAAGCGCCAGACCUACAGAAAUGUAGUUGACGGGUAGGAGGUUUAUCGAAUUUUCGGCGGAUGCCUCCAAA | < 1e-05 |  | < 1e-05 |  |
| AUAAAAGCGCCAGUACUACAGAAAUGUAGUUGACGAGGAGGAAGUUUAUCGAAUUUUCGGCGUAUGCUUCCAAA | < 1e-05 |  | < 1e-05 |  |
